Measured values taken from US20180243244A1.
Like-named read-outs stand apart in the source and are kept apart here. No end group written: not given here.

How the values were obtained:
p62-D3-GST, Q13501 [1] = target: p62-D3-GST, Q13501
[2] = target: p62 (Homo sapiens (Human)), Q13501; assay: X-peptide pull down of in vitro transcribed and translated p62, Western blot
p62-D3-GST, Q13501 [3] = target: p62-D3-GST, Q13501; remark: listed apart in the source
p62-D3-GST, Q13501 [4] = assay: SPR (Biacore), legend of FIG. 6

| Binder | Kd (p62-D3-GST, Q13501 [1]) | koff (p62-D3-GST, Q13501 [1]) | kon (p62-D3-GST, Q13501 [1]) | efficiency of precipitating p62 [2] | Kd (p62-D3-GST, Q13501 [3]) | Kd (p62-D3-GST, Q13501 [4]) | fold binding force against N-recognins containing a URB box (p62-D3-GST, Q13501 [3]) |
| --- | --- | --- | --- | --- | --- | --- | --- |
| FIFSTIEGRTY (not fully specified) [F11 peptide (biotin-labeled X-peptide with N-terminal Phe)] | 3440 nM | 0.0019 s⁻¹ | 550 M⁻¹ s⁻¹ | 5% | 3400 nM |  |  |
| RIFSTIEGRTYK (not fully specified) [R11 peptide (biotin-labeled X-peptide with N-terminal Arg)] | 44 nM | 0.0005 s⁻¹ | 12300 M⁻¹ s⁻¹ | > 40% |  | 40 nM | 50 times |
